In PMC4461284, “Different Modes of Transactivation of Bacteriophage Mu Late Promoters by Transcription Factor C”:

B1: lys promoter 92mer (dsDNA)
DNA 1: AATTCATCCTGCCGGTTATTTCCTGTCACCATAATCCCGCACCTGCCACCTGATTTTTTAGACTGCCATCAGAGAATTTTTTCAGGGAAGCG
DNA 2: GATCCGCTTCCCTGAAAAAATTCTCTGATGGCAGTCTAAAAAATCAGGTGGCAGGTGCGGGATTATGGTGACAGGAAATAACCGGCAGGATG
B2: tin7 P2-disrupted promoter 78mer (dsDNA)
DNA 1: AATTCCGGTTGCGCCCCAATAACCACACTCAACCCATGATGTTTGTTAAGATAGTGGCGAATTGATGCAAAGGAGGTG
DNA 2: GATCCACCTCCTTTGCATCAATTCGCCACTATCTTAACAAACATCATGGGTTGAGTGTGTGGTTATTGGGGCGCAACCGGG
B3: P promoter 92mer (dsDNA)
DNA 1: AATTCACAGGGACAGTTACAGTTAACTGCCATAACCCCGGACGGCGGCTTTTCACAGGTATCCTTTTCAGACAGTGGTACAGCCACGCCCCG
DNA 2: GATCCGGGGCGTGGCTGTACCACTGTCTGAAAAGGATACCTGTGAAAAGCCGCCGTCCGGGGTTATGGCAGTTAACTGTAACTGTCCCTGTG
B4: I promoter 92mer (dsDNA)
DNA 1: AATTCTTTCTTTCTCCAGTACTCAAATAGCATAACCCCAGATTTTCCCGCACCTCCCGCAAACTGACTGCTCACAAACCATGATGAGCAGCGG
DNA 2: GATCCCGCTGCTCATCATGGTTTGTGAGCAGTCAGTTTGCGGGAGGTGCGGGAAAATCTGGGGTTATGCTATTTGAGTACTGGAGAAAGAAAG

Target: RNA polymerase (RNAP), WT (E. coli, UniProt P0A7Z4;P0A8V2;P0A8T7;P0A800;P00579 1-329;1-1342;1-1407;2-91;1-613)
Assay: EMSA; no C protein; on ice (closed complex); EMSA: on ice 10 min, 3.5% native PAGE at 4 C; binding buffer not stated (transcription buffer: 40 mM Tris-Cl pH 8.0, 5 mM Mg acetate, 0.1 mM EDTA, 0.1 mM DTT, 100 mM KCl, 100 ug/ml BSA)
Details: protein: recombinant, (Ni-NTA purified), chain copies: 2;1;1;1;1, label: 5' 32P
[1] = 5' overhangs 4 nt (EcoRI AATT / BamHI GATC)

Binder	binding result [1]	binding result (5' overhangs (EcoRI AATT / BamHI GATC))
B1	binds	
B2		binds
B3	binds	
B4	binds	
